The text below walks through data of patent publication US20250171562A1.

B1: CIgG4E2A1(G4S)2 (Fc fusion)
chain 1: GPPCPPCPAPEFLGGPSVFLFPPKPKDTLMISRTPEVTCVVVDVSQEDPEVQFNWYVDGVEVHNAKTKPREEQFNSTYRVVSVLTVLHQDWLNGKEYKCKVSNKGLPSSIEKTISKAKGQPREPQVYTLPPCQEEMTKNQVSLWCLVKGFYPSDIAVEWESNGQPENNYKTTPPVLDSDGSFFLYSRLTVDKSRWQEGNVFSCSVMHEALHNHYTQKSLSLSLGKGGGGSGGGGSDVQLQESGGGLVQAGGSLRLSCAASGRTISRYAVGWFRRPPAKEREFIGINWSGGSTTYADSAEGRFIISRDNAKNTVYLQMNSLKPEDTAVYYCAVPSVLVQGGISNPSQYDYWGQGTQVTVS
chain 2: GPPCPPCPAPEFLGGPSVFLFPPKPKDTLMISRTPEVTCVVVDVSQEDPEVQFNWYVDGVEVHNAKTKPREEQFNSTYRVVSVLTVLHQDWLNGKEYKCKVSNKGLPSSIEKTISKAKGQPREPQVCTLPPSQEEMTKNQVSLSCAVKGFYPSDIAVEWESNGQPENNYKTTPPVLDSDGSFFLVSRLTVDKSRWQEGNVFSCSVMHEALHNHYTQKSLSLSLGKGGGGSGGGGSEVQLLESGGGLVQPGGSLRLSCAASGFTFGNYDMAWVRQAPGKRPEWVSSIDTGGDITHYADSVKGRFTISRDNAKNTLYLQMNSLRPEDTAVYWCATDEEYALGPNEFDYYGQGTLVTVSS
B2: CIgG4E2A1(G4S)1 (Fc fusion)
chain 1: GPPCPPCPAPEFLGGPSVFLFPPKPKDTLMISRTPEVTCVVVDVSQEDPEVQFNWYVDGVEVHNAKTKPREEQFNSTYRVVSVLTVLHQDWLNGKEYKCKVSNKGLPSSIEKTISKAKGQPREPQVYTLPPCQEEMTKNQVSLWCLVKGFYPSDIAVEWESNGQPENNYKTTPPVLDSDGSFFLYSRLTVDKSRWQEGNVFSCSVMHEALHNHYTQKSLSLSLGKGGGGSDVQLQESGGGLVQAGGSLRLSCAASGRTISRYAVGWFRRPPAKEREFIGINWSGGSTTYADSAEGRFIISRDNAKNTVYLQMNSLKPEDTAVYYCAVPSVLVQGGISNPSQYDYWGQGTQVTVS
chain 2: GPPCPPCPAPEFLGGPSVFLFPPKPKDTLMISRTPEVTCVVVDVSQEDPEVQFNWYVDGVEVHNAKTKPREEQFNSTYRVVSVLTVLHQDWLNGKEYKCKVSNKGLPSSIEKTISKAKGQPREPQVCTLPPSQEEMTKNQVSLSCAVKGFYPSDIAVEWESNGQPENNYKTTPPVLDSDGSFFLVSRLTVDKSRWQEGNVFSCSVMHEALHNHYTQKSLSLSLGKGGGGSEVQLLESGGGLVQPGGSLRLSCAASGFTFGNYDMAWVRQAPGKRPEWVSSIDTGGDITHYADSVKGRFTISRDNAKNTLYLQMNSLRPEDTAVYWCATDEEYALGPNEFDYYGQGTLVTVSS
B3: NIgG4E3A1(RS) (Fc fusion)
chain 1: DVQLQESGGGLVQAGGSLRLACAASGRTLSSYVVSWFRQAPGKERKFVAAITWSGLSTTYLDSVQGRFTISRDNTKDTVYLQMNSLKPQDTAIYYCAAGPNIPSILRTRESEYAYWGQGTQVTVSRSGPPCPPCPAPEFLGGPSVFLFPPKPKDTLMISRTPEVTCVVVDVSQEDPEVQFNWYVDGVEVHNAKTKPREEQFNSTYRVVSVLTVLHQDWLNGKEYKCKVSNKGLPSSIEKTISKAKGQPREPQVYTLPPCQEEMTKNQVSLWCLVKGFYPSDIAVEWESNGQPENNYKTTPPVLDSDGSFFLYSRLTVDKSRWQEGNVFSCSVMHEALHNHYTQKSLSLSLGK
chain 2: EVQLLESGGGLVQPGGSLRLSCAASGFTFGNYDMAWVRQAPGKRPEWVSSIDTGGDITHYADSVKGRFTISRDNAKNTLYLQMNSLRPEDTAVYWCATDEEYALGPNEFDYYGQGTLVTVSSRSGPPCPPCPAPEFLGGPSVFLFPPKPKDTLMISRTPEVTCVVVDVSQEDPEVQFNWYVDGVEVHNAKTKPREEQFNSTYRVVSVLTVLHQDWLNGKEYKCKVSNKGLPSSIEKTISKAKGQPREPQVCTLPPSQEEMTKNQVSLSCAVKGFYPSDIAVEWESNGQPENNYKTTPPVLDSDGSFFLVSRLTVDKSRWQEGNVFSCSVMHEALHNHYTQKSLSLSLGK
B4: CIgG4E3A1(RS) (Fc fusion)
chain 1: GPPCPPCPAPEFLGGPSVFLFPPKPKDTLMISRTPEVTCVVVDVSQEDPEVQFNWYVDGVEVHNAKTKPREEQFNSTYRVVSVLTVLHQDWLNGKEYKCKVSNKGLPSSIEKTISKAKGQPREPQVYTLPPCQEEMTKNQVSLWCLVKGFYPSDIAVEWESNGQPENNYKTTPPVLDSDGSFFLYSRLTVDKSRWQEGNVFSCSVMHEALHNHYTQKSLSLSLGKRSDVQLQESGGGLVQAGGSLRLACAASGRTLSSYVVSWFRQAPGKERKFVAAITWSGLSTTYLDSVQGRFTISRDNTKDTVYLQMNSLKPQDTAIYYCAAGPNIPSILRTRESEYAYWGQGTQVTVS
chain 2: GPPCPPCPAPEFLGGPSVFLFPPKPKDTLMISRTPEVTCVVVDVSQEDPEVQFNWYVDGVEVHNAKTKPREEQFNSTYRVVSVLTVLHQDWLNGKEYKCKVSNKGLPSSIEKTISKAKGQPREPQVCTLPPSQEEMTKNQVSLSCAVKGFYPSDIAVEWESNGQPENNYKTTPPVLDSDGSFFLVSRLTVDKSRWQEGNVFSCSVMHEALHNHYTQKSLSLSLGKRSEVQLLESGGGLVQPGGSLRLSCAASGFTFGNYDMAWVRQAPGKRPEWVSSIDTGGDITHYADSVKGRFTISRDNAKNTLYLQMNSLRPEDTAVYWCATDEEYALGPNEFDYYGQGTLVTVSS
B5: NIgG4E3A1(G4S)1 (Fc fusion)
chain 1: DVQLQESGGGLVQAGGSLRLACAASGRTLSSYVVSWFRQAPGKERKFVAAITWSGLSTTYLDSVQGRFTISRDNTKDTVYLQMNSLKPQDTAIYYCAAGPNIPSILRTRESEYAYWGQGTQVTVSGGGGSGPPCPPCPAPEFLGGPSVFLFPPKPKDTLMISRTPEVTCVVVDVSQEDPEVQFNWYVDGVEVHNAKTKPREEQFNSTYRVVSVLTVLHQDWLNGKEYKCKVSNKGLPSSIEKTISKAKGQPREPQVYTLPPCQEEMTKNQVSLWCLVKGFYPSDIAVEWESNGQPENNYKTTPPVLDSDGSFFLYSRLTVDKSRWQEGNVFSCSVMHEALHNHYTQKSLSLSLGK
chain 2: EVQLLESGGGLVQPGGSLRLSCAASGFTFGNYDMAWVRQAPGKRPEWVSSIDTGGDITHYADSVKGRFTISRDNAKNTLYLQMNSLRPEDTAVYWCATDEEYALGPNEFDYYGQGTLVTVSSGGGGSGPPCPPCPAPEFLGGPSVFLFPPKPKDTLMISRTPEVTCVVVDVSQEDPEVQFNWYVDGVEVHNAKTKPREEQFNSTYRVVSVLTVLHQDWLNGKEYKCKVSNKGLPSSIEKTISKAKGQPREPQVCTLPPSQEEMTKNQVSLSCAVKGFYPSDIAVEWESNGQPENNYKTTPPVLDSDGSFFLVSRLTVDKSRWQEGNVFSCSVMHEALHNHYTQKSLSLSLGK
B6: NIgG4E3A1(G4S)3 (Fc fusion)
chain 1: DVQLQESGGGLVQAGGSLRLACAASGRTLSSYVVSWFRQAPGKERKFVAAITWSGLSTTYLDSVQGRFTISRDNTKDTVYLQMNSLKPQDTAIYYCAAGPNIPSILRTRESEYAYWGQGTQVTVSGGGGSGGGGSGGGGSGPPCPPCPAPEFLGGPSVFLFPPKPKDTLMISRTPEVTCVVVDVSQEDPEVQFNWYVDGVEVHNAKTKPREEQFNSTYRVVSVLTVLHQDWLNGKEYKCKVSNKGLPSSIEKTISKAKGQPREPQVYTLPPCQEEMTKNQVSLWCLVKGFYPSDIAVEWESNGQPENNYKTTPPVLDSDGSFFLYSRLTVDKSRWQEGNVFSCSVMHEALHNHYTQKSLSLSLGK
chain 2: EVQLLESGGGLVQPGGSLRLSCAASGFTFGNYDMAWVRQAPGKRPEWVSSIDTGGDITHYADSVKGRFTISRDNAKNTLYLQMNSLRPEDTAVYWCATDEEYALGPNEFDYYGQGTLVTVSSGGGGSGGGGSGGGGSGPPCPPCPAPEFLGGPSVFLFPPKPKDTLMISRTPEVTCVVVDVSQEDPEVQFNWYVDGVEVHNAKTKPREEQFNSTYRVVSVLTVLHQDWLNGKEYKCKVSNKGLPSSIEKTISKAKGQPREPQVCTLPPSQEEMTKNQVSLSCAVKGFYPSDIAVEWESNGQPENNYKTTPPVLDSDGSFFLVSRLTVDKSRWQEGNVFSCSVMHEALHNHYTQKSLSLSLGK
B7: CIgG4E2A1(G4S)3 (Fc fusion)
chain 1: GPPCPPCPAPEFLGGPSVFLFPPKPKDTLMISRTPEVTCVVVDVSQEDPEVQFNWYVDGVEVHNAKTKPREEQFNSTYRVVSVLTVLHQDWLNGKEYKCKVSNKGLPSSIEKTISKAKGQPREPQVYTLPPCQEEMTKNQVSLWCLVKGFYPSDIAVEWESNGQPENNYKTTPPVLDSDGSFFLYSRLTVDKSRWQEGNVFSCSVMHEALHNHYTQKSLSLSLGKGGGGSGGGGSGGGGSDVQLQESGGGLVQAGGSLRLSCAASGRTISRYAVGWFRRPPAKEREFIGINWSGGSTTYADSAEGRFIISRDNAKNTVYLQMNSLKPEDTAVYYCAVPSVLVQGGISNPSQYDYWGQGTQVTVS
chain 2: GPPCPPCPAPEFLGGPSVFLFPPKPKDTLMISRTPEVTCVVVDVSQEDPEVQFNWYVDGVEVHNAKTKPREEQFNSTYRVVSVLTVLHQDWLNGKEYKCKVSNKGLPSSIEKTISKAKGQPREPQVCTLPPSQEEMTKNQVSLSCAVKGFYPSDIAVEWESNGQPENNYKTTPPVLDSDGSFFLVSRLTVDKSRWQEGNVFSCSVMHEALHNHYTQKSLSLSLGKGGGGSGGGGSGGGGSEVQLLESGGGLVQPGGSLRLSCAASGFTFGNYDMAWVRQAPGKRPEWVSSIDTGGDITHYADSVKGRFTISRDNAKNTLYLQMNSLRPEDTAVYWCATDEEYALGPNEFDYYGQGTLVTVSS
B8: NIgG4E3A1(G4S)2 (Fc fusion)
chain 1: DVQLQESGGGLVQAGGSLRLACAASGRTLSSYVVSWFRQAPGKERKFVAAITWSGLSTTYLDSVQGRFTISRDNTKDTVYLQMNSLKPQDTAIYYCAAGPNIPSILRTRESEYAYWGQGTQVTVSGGGGSGGGGSGPPCPPCPAPEFLGGPSVFLFPPKPKDTLMISRTPEVTCVVVDVSQEDPEVQFNWYVDGVEVHNAKTKPREEQFNSTYRVVSVLTVLHQDWLNGKEYKCKVSNKGLPSSIEKTISKAKGQPREPQVYTLPPCQEEMTKNQVSLWCLVKGFYPSDIAVEWESNGQPENNYKTTPPVLDSDGSFFLYSRLTVDKSRWQEGNVFSCSVMHEALHNHYTQKSLSLSLGK
chain 2: EVQLLESGGGLVQPGGSLRLSCAASGFTFGNYDMAWVRQAPGKRPEWVSSIDTGGDITHYADSVKGRFTISRDNAKNTLYLQMNSLRPEDTAVYWCATDEEYALGPNEFDYYGQGTLVTVSSGGGGSGGGGSGPPCPPCPAPEFLGGPSVFLFPPKPKDTLMISRTPEVTCVVVDVSQEDPEVQFNWYVDGVEVHNAKTKPREEQFNSTYRVVSVLTVLHQDWLNGKEYKCKVSNKGLPSSIEKTISKAKGQPREPQVCTLPPSQEEMTKNQVSLSCAVKGFYPSDIAVEWESNGQPENNYKTTPPVLDSDGSFFLVSRLTVDKSRWQEGNVFSCSVMHEALHNHYTQKSLSLSLGK

The target in the experiment is mixture of three Der p 2 specific recombinant human IgE clones H10, H12, P4E (human) (UniProt P01854). Kind of experiment: RBL-SX38 IgE displacement, FACS.
mixture of three Der p 2 specific recombinant human IgE clones H10, H12, P4E (human), sequence (P01854 other isoform, or with tags, fused parts or gaps): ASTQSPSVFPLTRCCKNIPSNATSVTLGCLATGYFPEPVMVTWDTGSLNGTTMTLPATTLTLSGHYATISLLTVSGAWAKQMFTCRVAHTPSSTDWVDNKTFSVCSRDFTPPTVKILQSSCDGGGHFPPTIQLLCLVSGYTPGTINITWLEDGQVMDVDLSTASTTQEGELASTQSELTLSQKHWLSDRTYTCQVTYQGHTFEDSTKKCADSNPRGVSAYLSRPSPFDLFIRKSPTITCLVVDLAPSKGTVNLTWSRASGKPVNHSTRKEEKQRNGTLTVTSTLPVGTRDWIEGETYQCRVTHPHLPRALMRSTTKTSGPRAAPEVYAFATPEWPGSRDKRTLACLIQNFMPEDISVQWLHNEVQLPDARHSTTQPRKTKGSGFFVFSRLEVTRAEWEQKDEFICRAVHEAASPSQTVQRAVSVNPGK
Take B1: the EC50 – broadly, the midpoint of the concentration-response curve – was found to be 572 nM and the Max effect/effect 1 µM was 45%.

As to B2, the Max effect/effect 1 µM worked out at 22%.

Consider B3, for which the EC50 stood at 2.2 nM and the Max effect/effect 1 µM turned out to be 100%.

B4: the Max effect/effect 1 µM was 21%.

With B5, the EC50 was 2 nM and the Max effect/effect 1 µM was 99%.

As to B6, the EC50 came to 2.2 nM and the Max effect/effect 1 µM was found to be 97%.

For B7, the EC50 stood at 532 nM and the Max effect/effect 1 µM was determined as 45%.

With B8, the EC50 turned out to be 2.1 nM and the Max effect/effect 1 µM is 99%.
